Test results from patent US5969094A, “Anti-paramyxovirus screening method and vaccine” (Emory University, priority 1996, dated 1999).

Experiments:
HeLa-T4 cells = type: cell-based
guinea pig erythrocytes = type: cell-based
SN-F = biological target: T1, SN-F (Sendai virus, UniProt P04855); type: cell-based
T1 sequence (P04855 117-565 limits assumed): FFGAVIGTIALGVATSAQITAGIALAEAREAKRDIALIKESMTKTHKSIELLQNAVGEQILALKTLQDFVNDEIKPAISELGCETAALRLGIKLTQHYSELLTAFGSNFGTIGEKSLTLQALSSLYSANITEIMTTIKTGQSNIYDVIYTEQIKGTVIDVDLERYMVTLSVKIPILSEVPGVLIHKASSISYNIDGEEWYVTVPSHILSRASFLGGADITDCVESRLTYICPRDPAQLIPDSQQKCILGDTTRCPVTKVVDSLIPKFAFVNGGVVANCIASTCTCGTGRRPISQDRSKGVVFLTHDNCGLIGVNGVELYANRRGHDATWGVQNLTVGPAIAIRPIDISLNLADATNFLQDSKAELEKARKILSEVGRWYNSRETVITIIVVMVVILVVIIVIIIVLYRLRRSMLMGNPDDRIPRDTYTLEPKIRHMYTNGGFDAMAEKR
T1 sequence (P04855 26-116 partner limits assumed): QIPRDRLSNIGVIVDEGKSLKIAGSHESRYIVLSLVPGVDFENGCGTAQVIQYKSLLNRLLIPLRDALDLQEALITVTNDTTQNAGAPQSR

[1] = biological target: T2, SN-F, fusion glycoprotein of Sendai virus (Sendai virus (SN), UniProt P04855); assay: cell-based or functional assay
T2 sequence: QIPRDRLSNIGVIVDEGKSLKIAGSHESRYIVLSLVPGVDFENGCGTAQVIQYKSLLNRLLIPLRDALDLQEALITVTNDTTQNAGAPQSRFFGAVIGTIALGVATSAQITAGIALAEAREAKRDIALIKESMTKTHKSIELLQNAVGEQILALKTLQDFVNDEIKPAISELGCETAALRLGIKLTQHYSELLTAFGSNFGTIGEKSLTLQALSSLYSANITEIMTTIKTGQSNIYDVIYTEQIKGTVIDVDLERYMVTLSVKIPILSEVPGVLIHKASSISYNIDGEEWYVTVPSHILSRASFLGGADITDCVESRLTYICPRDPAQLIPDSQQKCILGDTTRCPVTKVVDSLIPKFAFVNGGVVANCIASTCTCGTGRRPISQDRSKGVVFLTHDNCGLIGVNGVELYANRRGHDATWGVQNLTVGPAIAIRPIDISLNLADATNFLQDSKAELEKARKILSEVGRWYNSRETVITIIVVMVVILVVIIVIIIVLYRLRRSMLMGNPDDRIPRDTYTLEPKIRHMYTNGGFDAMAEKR

B1: SN(140) chimeric HN protein (other)
chain: MDGDRGKRDSYWSTSPSGSTTKPASGWERSSKADTWLLILSFTQWALSIATVIICIIISARQGYSMKEYSMTVEALNMSSREVKESLTSLIRQEVIARAVNIQSSVQTGIPVLLNKNSRDVIQMIDKSCSRQELTQHCESRITHDVGIKPLNPDDFWRCTSGLPSLMKTPKIRLMPGPGLLAMPTTVDGCVRTPSLVINDLIYAYTSNLITRGCQDIGKSYQVLQIGIITVNSDLVPDLNPRISHTFNINDNRKSCSLALLNTDVYQLCSTPKVDERSDYASSGIEDIVLDIVNHDGSISTTRFKNNNISFDQPYAALYPSVGPGIYYKGKIIFLGYGGLEHPINENAICNTTGCPGKTQRDCNQASHSPWFSDRRMVNSIIVVDKGLNSIPKLKVWTISMRQNYWGSEGRLLLLGNKIYIYTRSTSWHSKLQLGIIDITDYSDIRIKWTWHNVLSRPGNNECPWGHSCPDGCITGVYTDAYPLNPTGSIVSSVILDSQKSRVNPVITYSTSTERVNELAIRNKTLSAGYTTTSCITHYNKGYCFHIVEINHKSLDTFQPMLFKTEIPKSCS
HeLa-T4 cells
  Cell surface expression (%): 68.1%
Guinea pig erythrocytes
  HAD activity as percentage of wild type SN-HN hemadsorption: comparable or higher HAD activity than that of SN-HN
  hemadsorption observed under the microscope: high levels of hemadsorption
SN-F
  Relative fusion promoting activity b/a: 0.66
  cell fusion / syncytium formation with SN-F observed by microscopy: lower level of syncytium formation
[1]
  Fusion activity (%), β-galactosidase production in the fusion dependent reporter gene activation assay: 44.6 % of SN-HN wt with SN-F

B2: SN(137) chimeric HN protein (other)
chain: MDGDRGKRDSYWSTSPSGSTTKPASGWERSSKADTWLLILSFTQWALSIATVIICIIISARQGYSMKEYSMTVEALNMSSREVKESLTSLIRQEVIARAVNIQSSVQTGIPVLLNKNSRDVIQMIDKSCSRQELTQHPPQRITHDVGIKPLNPDDFWRCTSGLPSLMKTPKIRLMPGPGLLAMPTTVDGCVRTPSLVINDLIYAYTSNLITRGCQDIGKSYQVLQIGIITVNSDLVPDLNPRISHTFNINDNRKSCSLALLNTDVYQLCSTPKVDERSDYASSGIEDIVLDIVNHDGSISTTRFKNNNISFDQPYAALYPSVGPGIYYKGKIIFLGYGGLEHPINENAICNTTGCPGKTQRDCNQASHSPWFSDRRMVNSIIVVDKGLNSIPKLKVWTISMRQNYWGSEGRLLLLGNKIYIYTRSTSWHSKLQLGIIDITDYSDIRIKWTWHNVLSRPGNNECPWGHSCPDGCITGVYTDAYPLNPTGSIVSSVILDSQKSRVNPVITYSTSTERVNELAIRNKTLSAGYTTTSCITHYNKGYCFHIVEINHKSLDTFQPMLFKTEIPKSCS
Guinea pig erythrocytes
  HAD activity as percentage of wild type SN-HN hemadsorption: 27.5%
  hemadsorption observed under the microscope: lower activities
SN-F
  fusion promoting activity, percentage of wild type SN-HN: did not show any significant fusion promoting activity
[1]
  Fusion activity (%), β-galactosidase production in the fusion dependent reporter gene activation assay: 0 % of SN-HN wt with SN-F

B3: SN(27-140) chimeric HN protein (other)
chain: MEYWKHTNHGKDAGNELETSMATHGNWERSSKADTWLLILSFTQWALSIATVIICIIISARQGYSMKEYSMTVEALNMSSREVKESLTSLIRQEVIARAVNIQSSVQTGIPVLLNKNSRDVIQMIDKSCSRQELTQHCESRITHDVGIKPLNPDDFWRCTSGLPSLMKTPKIRLMPGPGLLAMPTTVDGCVRTPSLVINDLIYAYTSNLITRGCQDIGKSYQVLQIGIITVNSDLVPDLNPRISHTFNINDNRKSCSLALLNTDVYQLCSTPKVDERSDYASSGIEDIVLDIVNHDGSISTTRFKNNNISFDQPYAALYPSVGPGIYYKGKIIFLGYGGLEHPINENAICNTTGCPGKTQRDCNQASHSPWFSDRRMVNSIIVVDKGLNSIPKLKVWTISMRQNYWGSEGRLLLLGNKIYIYTRSTSWHSKLQLGIIDITDYSDIRIKWTWHNVLSRPGNNECPWGHSCPDGCITGVYTDAYPLNPTGSIVSSVILDSQKSRVNPVITYSTSTERVNELAIRNKTLSAGYTTTSCITHYNKGYCFHIVEINHKSLDTFQPMLFKTEIPKSCS
HeLa-T4 cells
  Cell surface expression (%): 75.6%
Guinea pig erythrocytes
  HAD activity as percentage of wild type SN-HN hemadsorption: comparable or higher HAD activity than that of SN-HN
  hemadsorption observed under the microscope: high levels of hemadsorption
SN-F
  cell fusion / syncytium formation with SN-F observed by microscopy: Syncytium formation was observed
[1]
  Fusion activity (%), β-galactosidase production in the fusion dependent reporter gene activation assay: 79.7 % of SN-HN wt with SN-F

B4: PI3-HN: wild type human parainfluenza type 3 virus HN protein (protein)
chain: MEYWKHTNHGKDAGNELETSMATHGNKITNKITYILWTIILVLLSIVFIIVLINSIKSEKAHESLLQDVNNEFMEVTEKIQMASDNINDLIQSGVNTRLLTIQSHVQNYIPISLTQQMSDLRKFISEITIRNDNQEVPPQRITHDVGIKPLNPDDFWRCTSGLPSLMKTPKIRLMPGPGLLAMPTTVDGCVRTPSLVINDLIYAYTSNLITRGCQDIGKSYQVLQIGIITVNSDLVPDLNPRISHTFNINDNRKSCSLALLNTDVYQLCSTPKVDERSDYASSGIEDIVLDIVNHDGSISTTRFKNNNISFDQPYAALYPSVGPGIYYKGKIIFLGYGGLEHPINENAICNTTGCPGKTQRDCNQASHSPWFSDRRMVNSIIVVDKGLNSIPKLKVWTISMRQNYWGSEGRLLLLGNKIYIYTRSTSWHSKLQLGIIDITDYSDIRIKWTWHNVLSRPGNNECPWGHSCPDGCITGVYTDAYPLNPTGSIVSSVILDSQKSRVNPVITYSTSTERVNELAIRNKTLSAGYTTTSCITHYNKGYCFHIVEINHKSLDTFQPMLFKTEIPKSCS
HeLa-T4 cells
  Cell surface expression (%): 100.0%
SN-F
  Fusion activity (5): 3.47
  Relative fusion promoting activity b/a: 0.03
  cell fusion / syncytium formation with SN-F observed by microscopy: no cell fusion was observed

B5: SN(44-140) chimeric HN protein (other)
chain: MEYWKHTNHGKDAGNELETSMATHGNKITNKITYILWTIILVLQWALSIATVIICIIISARQGYSMKEYSMTVEALNMSSREVKESLTSLIRQEVIARAVNIQSSVQTGIPVLLNKNSRDVIQMIDKSCSRQELTQHCESRITHDVGIKPLNPDDFWRCTSGLPSLMKTPKIRLMPGPGLLAMPTTVDGCVRTPSLVINDLIYAYTSNLITRGCQDIGKSYQVLQIGIITVNSDLVPDLNPRISHTFNINDNRKSCSLALLNTDVYQLCSTPKVDERSDYASSGIEDIVLDIVNHDGSISTTRFKNNNISFDQPYAALYPSVGPGIYYKGKIIFLGYGGLEHPINENAICNTTGCPGKTQRDCNQASHSPWFSDRRMVNSIIVVDKGLNSIPKLKVWTISMRQNYWGSEGRLLLLGNKIYIYTRSTSWHSKLQLGIIDITDYSDIRIKWTWHNVLSRPGNNECPWGHSCPDGCITGVYTDAYPLNPTGSIVSSVILDSQKSRVNPVITYSTSTERVNELAIRNKTLSAGYTTTSCITHYNKGYCFHIVEINHKSLDTFQPMLFKTEIPKSCS
HeLa-T4 cells
  Cell surface expression (%): 126.6%
Guinea pig erythrocytes
  HAD activity as percentage of wild type SN-HN hemadsorption: comparable or higher HAD activity than that of SN-HN
  hemadsorption observed under the microscope: high levels of hemadsorption
SN-F
  Relative fusion promoting activity b/a: 0.70
[1]
  Fusion activity (%), β-galactosidase production in the fusion dependent reporter gene activation assay: 88.7 % of SN-HN wt with SN-F

B6: SN-HN: wild type Sendai virus hemagglutinin-neuraminidase (HN) protein (protein)
chain: MDGDRGKRDSYWSTSPSGSTTKPASGWERSSKADTWLLILSFTQWALSIATVIICIIISARQGYSMKEYSMTVEALNMSSREVKESLTSLIRQEVIARAVNIQSSVQTGIPVLLNKNSRDVIQMIDKSCSRQELTQHCESTIAVHHADGIAPLEPHSFWRCPVGEPYLSSDPEISLLPGPSLLSGSTTISGCVRLPSLSIGEAIYAYSSNLITQGCADIGKSYQVLQLGYISLNSDMFPDLNPVVSHTYDINDNRKSCSVVATGTRGYQLCSMPTVDERTDYSSDGIEDLVLDVLDLKGRTKSHRYRNSEVDLDHPFSALYPSVGNGIATEGSLIFLGYGGLTTPLQGDTKCRTQGCQQVSQDTCNEALKITWLGGKQVVSVIIQVNDYLSERPKIRVTTIPITQNYLGAEGRLLKLGDRVYIYTRSSGWHSQLQIGVLDVSHPLTINWTPHEALSRPGNKECNWYNKCPKECISGVYTDAYPLSPDAANVATVTLYANTSRVNPTIMYSNTTNIINMLRIKDVQLEAAYTTTSCITHFGKGYCFHIIEINQKSLNTLQPMLFKTSIPKLCKAES
HeLa-T4 cells
  Cell surface expression (%): 163.9%
Guinea pig erythrocytes
  hemadsorption observed under the microscope: high levels of hemadsorption
SN-F
  Fusion activity (5): 100.00
  Relative fusion promoting activity b/a: 0.61
  cell fusion / syncytium formation with SN-F observed by microscopy: Extensive cell fusion
